Data reported in publication doi:10.1101/2023.08.16.553474.

How the values were obtained:
Test in all cases: fluorescence anisotropy
MYCN 1-154 dMBII = MYCN 1-154 dMBII (UniProt P04198 1-154, del111-134)
MYCN FL = MYCN FL (UniProt P04198 1-464)
MYCN 1-154 = MYCN 1-154 (UniProt P04198 1-154)

Binder	binding result (MYCN 1-154 dMBII)	Kd (MYCN FL) [nM]	binding result (MYCN 1-154)
UGhigh RNA (ssRNA) RNA: UGCUGGGAUGGUCAUGGUGGGUGACCCUGGGAUGGCCGCGGUGGGUGACCCUGGAAUGGU	binds	175	
UGlow RNA (ssRNA) RNA: ACAGUCCAGUCGCAGCAGACUCCCUCACAGCACCCACCUCUCCCACAAUCGGAUCCCAGG		511	
62 RNA (ssRNA) RNA: UGGGCCUGGAAUAGUGGGGGCCCAGGGGAAGCUGCGAUGUGCUUCUGAGUGUUUGGAACGAG			binds
